In the data set the target is MBD2 MBD S189A (Homo sapiens, UniProt Q9UBB5 150-214, S189A). The data set is described as follows: fluorescence polarization; 3 mM Mg2+; 10 nM DNA; FP: 10 mM HEPES pH 7.5, 50 mM NaCl, 3 mM MgCl2, 0.1 mM EDTA, 1 mM DTT, 0.02% sodium azide; 10 nM 3'FAM DNA; temperature not stated. The note with it: protein: recombinant; tags: thioredoxin/His tag (modified pET32a) removed by TEV protease; label: 3'FAM on forward strand; blunt.
Chain of MBD2 MBD S189A (Q9UBB5 150-214 S189A): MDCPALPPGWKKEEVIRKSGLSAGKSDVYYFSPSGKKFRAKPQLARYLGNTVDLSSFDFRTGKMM

B1: 17-bp symmetrically methylated mCpG DNA, 3'FAM (dsDNA)
DNA 1: GAGGCGCTCGGCGGCAG
DNA 2: CTGCCGCCGAGCGCCTC
modifications: 5-methylcytosine at position 9 of strand 1 and at position 8 of strand 2 (symmetric mCpG)
For B1, the Kd was found to be 11.5 ± 0.6 µM.

For the origin of these results see article PMC13678254, “Exploring the bistable equilibrium of methylated CpG DNA recognition by the MBD2 protein”.
